T1: human CD276 protein (human, UniProt Q5ZPR3 29-534)
T1 sequence (looked up): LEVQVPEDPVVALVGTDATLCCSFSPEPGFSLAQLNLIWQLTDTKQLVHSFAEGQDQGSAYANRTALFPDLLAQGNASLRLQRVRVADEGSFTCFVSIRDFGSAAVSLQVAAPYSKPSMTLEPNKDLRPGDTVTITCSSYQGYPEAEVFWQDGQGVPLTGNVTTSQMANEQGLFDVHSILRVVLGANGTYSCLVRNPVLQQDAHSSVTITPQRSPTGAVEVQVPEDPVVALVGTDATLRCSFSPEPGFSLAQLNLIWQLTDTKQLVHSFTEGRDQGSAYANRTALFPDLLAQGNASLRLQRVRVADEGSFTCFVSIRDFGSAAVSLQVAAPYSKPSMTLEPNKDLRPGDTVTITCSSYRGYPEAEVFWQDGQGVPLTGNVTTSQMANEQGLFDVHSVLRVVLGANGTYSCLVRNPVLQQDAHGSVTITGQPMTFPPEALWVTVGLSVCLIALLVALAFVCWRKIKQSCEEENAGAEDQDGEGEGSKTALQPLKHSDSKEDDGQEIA

T2: HUMAN B7H3 (Biacore analyte) (human, UniProt Q5ZPR3 29-461, limits assumed)
T2 construct: also called hB7H3
T2 sequence (looked up): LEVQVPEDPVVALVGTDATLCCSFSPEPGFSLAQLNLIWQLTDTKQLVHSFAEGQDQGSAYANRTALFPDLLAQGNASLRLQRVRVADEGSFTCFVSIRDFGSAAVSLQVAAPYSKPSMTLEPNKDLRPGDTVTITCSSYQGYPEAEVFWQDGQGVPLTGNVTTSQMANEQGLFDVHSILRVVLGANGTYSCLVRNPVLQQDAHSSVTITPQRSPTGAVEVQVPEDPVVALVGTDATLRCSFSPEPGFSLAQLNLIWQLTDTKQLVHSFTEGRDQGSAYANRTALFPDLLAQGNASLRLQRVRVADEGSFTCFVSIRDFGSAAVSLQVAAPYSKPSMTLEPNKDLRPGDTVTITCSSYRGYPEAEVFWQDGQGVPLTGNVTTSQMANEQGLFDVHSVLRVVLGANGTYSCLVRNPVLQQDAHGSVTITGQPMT


Legend:
human CD276 protein [1] = biological target: T1, human CD276 protein; experiment: cell-based or functional assay
human CD276 protein [2] = biological target: T1, human CD276 protein; experiment: FACS titration on SKOV3 cells (MFI against Conc. (nM)); unit taken from the concentration axis
human CD276 protein [3] = biological target: T1, human CD276 protein; experiment: cell-based or functional assay; remark: listed apart in the source
human CD276 protein [4] = biological target: T1, human CD276 protein; experiment: FACS on SKOV3 cells
Method in brief: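 Human IgG1 chimeric antibodies were tested for binding to trypsin-detached SKOV3 ovarian cancer cells by flow cytometry, with cells washed in FACS buffer and kept in the dark before acquisition. Titration read-out was MFI plotted against antibody concentration (nM).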

[5] = biological target: T2, HUMAN B7H3 (Biacore analyte); experiment: SPR, Biacore 8K, antibody captured, B7H3 as analyte, 1:1 binding
human CD276 protein [6] = biological target: T1, human CD276 protein; experiment: cell-based or functional assay; remark: listed apart in the source

Row | Binder | EC50 of antibody induced ADCC effect on SKOV3 (human CD276 protein [1]) | EC50 (human CD276 protein [2]) | EC50 of antibody induced CDC effect (human CD276 protein [3]) | Top cytotoxicity (%), CDC (human CD276 protein [3]) | EC50 (human CD276 protein [4]) | MFI (Max) (human CD276 protein [4]) | Kd [5] | koff [5] | kon [5] | IC50 of indirect ADC cytotoxicity on SKOV3 (human CD276 protein [6])
1 | 30-C7-C11-D4 (human IgG1 chimeric antibody) (antibody, V domains shown, human IgG1 chimeric antibody of the mouse clone) VH: EVQLVESGPGLVKPSQSLSLTCTVTGYSITSDYAWNWIRQFPGNKLEWMGYISHSGSTSYNPSLKSRISITRDTSKNQFFLQLNSVTTEDTATYYCARSLGRRWYFDVWGAGTTVTVSS VL: DIVMTQSPSSLAMSVGQKVTLSCKSSQSLLNSSTQKNYLAWYQQKPGQSPKLLVYFASTRDSGVPDRFIGSGSGTEFTLTISSVQAEDLADYFCQQHYIIPFTFGAGTKLEIK | 0.0327 µg/mL | 7.98 nM | 3.21 nM | 60.3% | 0.282 µg/mL | 4270 | – | – | – | –
2 | mVH-mVL1-30 (antibody, V domains shown) VH: EVQLVESGPGLVKPSQSLSLTCTVTGYSITSDYAWNWIRQFPGNKLEWMGYISHSGSTSYNPSLKSRISITRDTSKNQFFLQLNSVTTEDTATYYCARSLGRRWYFDVWGAGTTVTVSS VL: DIVMTQSPSSLAMSVGQKVTLSCKSSQSLLQSSTQKNYLAWYQQKPGQSPKLLVYFASTRDSGVPDRFIGSGSGTEFTLTISSVQAEDLADYFCQQHYIIPFTFGAGTKLEIK | – | 9.64 nM | – | – | – | – | – | – | – | –
3 | hVH1-hVL5-30 (antibody, V domains shown) VH: QVQLQESGPGLVKPSQTLSLTCTVSGYSITSDYAWNWIRQHPGKGLEWIGYISHSGSTSYNPSLKSRVTISRDTSKNQFSLKLSSVTAADTAVYYCARSLGRRWYFDVWGQGTTVTVSS VL: DIVMTQSPLSLPVTPGEPASISCKSSQSLLNSSTQKNYLAWYLQKPGQSPQLLIYFASTRDSGVPDRFSGSGSGTDFTLKISRVEAEDLGVYFCQQHYIIPFTFGQGTKLEIK | – | 11.3 nM | – | – | – | – | – | – | – | –
4 | hVH3-hVL2-30 (antibody, V domains shown) VH: QVQLQESGPGLVKPSETLSLTCTVSGYSITSDYAWNWIRQPPGKGLEWIGYISHSGSTSYNPSLKSRVTISRDTSKNQFSLKLSSVTAADTAVYYCARSLGRRWYFDVWGQGTTVTVSS VL: DIVMTQSPDSLAVSLGERATINCKSSQSLLNSSTQKNYLAWYQQKPGQPPKLLIYFASTRDSGVPDRFSGSGSGTDFTLTISSLQAEDLAVYFCQQHYIIPFTFGQGTKLEIK | – | 5.93 nM | – | – | – | – | – | – | – | –
5 | hVH2-hVL1-30 (antibody, V domains shown) VH: QVQLQESGPGLVKPSETLSLTCTVSGYSITSDYAWNWIRQPPGKGLEWIGYISHSGSTSYNPSLKSRVTISRDTSKNQFSLKLSSVTAADTAVYYCARSLGRRWYFDVWGQGTTVTVSS VL: DIQMTQSPSSLSASVGDRVTITCKSSQSLLNSSTQKNYLAWYQQKPGKAPKLLIYFASTRDSGVPSRFSGSGSGTDFTLTISSLQPEDLATYFCQQHYIIPFTFGQGTKLEIK | – | 9.51 nM | – | – | – | – | – | – | – | –
6 | hVH4-hVL5-30 (antibody, V domains shown) VH: QVQLQESGPGLVKPSQTLSLTCAVYGYSITSDYAWNWIRQPPGKGLEWIGYISHSGSTSYNPSLKSRVTISRDTSKNQFSLKLSSVTAADTAVYYCARSLGRRWYFDVWGQGTTVTVSS VL: DIVMTQSPLSLPVTPGEPASISCKSSQSLLNSSTQKNYLAWYLQKPGQSPQLLIYFASTRDSGVPDRFSGSGSGTDFTLKISRVEAEDLGVYFCQQHYIIPFTFGQGTKLEIK | – | 8.52 nM | – | – | – | – | – | – | – | –
7 | hVH3-hVL5-30 (antibody, V domains shown) VH: QVQLQESGPGLVKPSETLSLTCTVSGYSITSDYAWNWIRQPPGKGLEWIGYISHSGSTSYNPSLKSRVTISRDTSKNQFSLKLSSVTAADTAVYYCARSLGRRWYFDVWGQGTTVTVSS VL: DIVMTQSPLSLPVTPGEPASISCKSSQSLLNSSTQKNYLAWYLQKPGQSPQLLIYFASTRDSGVPDRFSGSGSGTDFTLKISRVEAEDLGVYFCQQHYIIPFTFGQGTKLEIK | – | 6.37 nM | – | – | – | – | – | – | – | –
8 | hVH4-hVL2-30 (antibody, V domains shown) VH: QVQLQESGPGLVKPSQTLSLTCAVYGYSITSDYAWNWIRQPPGKGLEWIGYISHSGSTSYNPSLKSRVTISRDTSKNQFSLKLSSVTAADTAVYYCARSLGRRWYFDVWGQGTTVTVSS VL: DIVMTQSPDSLAVSLGERATINCKSSQSLLNSSTQKNYLAWYQQKPGQPPKLLIYFASTRDSGVPDRFSGSGSGTDFTLTISSLQAEDLAVYFCQQHYIIPFTFGQGTKLEIK | – | 9.77 nM | – | – | – | – | – | – | – | –
9 | 7-E1-F8-F6 (human IgG1 chimeric antibody) (antibody, V domains shown, human IgG1 chimeric antibody of the mouse clone) VH: QVQLQQSGPELVKPGASVQMSCKASGYTFTDYVISWVNQRTGQGLEWIGEIYPRSGNTYYNEKFKGKATLTADKSSNTAYMQLSSLTSEDSAVYFCARFDIAYSFDYWGQGTTLTVSS VL: DVVMTQTPLSLPVSLGDQASISCRSTQSLVHSNGVTYLHWYLQKPGQSPKLLIYKVSNRFSGVPDRFSGSGSGTDFTLKISRVEAEDLGVYFCSQGTHVPWTFGGGTKLEIK | 0.0177 µg/mL | – | 1.69 nM | 91.9% | 0.982 µg/mL | 3380 | 0.855 nM | 0.000222 s⁻¹ | 260000 M⁻¹ s⁻¹ | 0.028 nM
10 | 16-C6-F7-F5 (human IgG1 chimeric antibody) (antibody, V domains shown, human IgG1 chimeric antibody of the mouse clone) VH: QIQLVQSGPEVKKPGETVKISCKASGYTFTKYGINWVKQAPGEGLKWMGWIWTYTGKPTYGDDFKGRFAFSLETSASTAYLQISDLKIEDMATYFCARDDGYYYTMNYWGQGTSVTVSS VL: DIVMTQTPLSLPVSLGDQASISCRSSQSLLHTNGDTYLHWYLQKAGQPPKLLIYKVSNRFSGVPDRFSGSGSGTDFTLKISRVEAEDLGVYFCSQSTHIPWTFGGGTKLEIK | 0.00664 µg/mL | – | 1.28 nM | 92.1% | 0.186 µg/mL | 5350 | 0.645 nM | 0.000243 s⁻¹ | 377000 M⁻¹ s⁻¹ | 0.009 nM
11 | 25-D3-G4-C6 (human IgG1 chimeric antibody) (antibody, V domains shown, human IgG1 chimeric antibody of the mouse clone) VH: EIQLQQTGPELVKPGASVKISCKASGYSFTDYIILWVKQSHGMSLEWIGNINPYYNSTYYNLKFKGKATLTVDKSSSTAYMQLDSLTSEDSAVYYCARDSFDWYFGVWGAGTTVTVSS VL: DVVMTQTPLSLPVSLGDQASISCRSSQSLVHSNGNTYLHWYLQKPGQSPKLLIYKVSNRFSGVPDRFSGSGSGTDFTLKISRVETEDLGIYFCSQSTHVPPLTFGAGTKLELK | 0.0372 µg/mL | – | 2.41 nM | 89.7% | 1.27 µg/mL | 3450 | 2.31 nM | 0.00025 s⁻¹ | 108000 M⁻¹ s⁻¹ | 0.023 nM
12 | 18-F9-D8-G7 (human IgG1 chimeric antibody) (antibody, V domains shown, human IgG1 chimeric antibody of the mouse clone) VH: EVQLQQSGPELVRPGVSVKISCKGSGYTFTDYAMHWVKQSHAQSLEWIGIINTYSGDTNYNQKFKGKATMTVDKSSSTAYMGLARLTSEDSAIFYCARGGGNYPYWYFDVWGAGTTVTVSS VL: ENVLTQSPAIMSASPGEKVTMTCRASSSVSSSYLHWYQQKSGDSPKLWIYSTSNLASGVPARFSGSGSGTSYSLTISSVEAEDAATYYCQQFSVYPLTFGAGTKLEIK | 0.503 µg/mL | – | 2.44 nM | 70.3% | 0.286 µg/mL | 4610 | 0.489 nM | 0.000239 s⁻¹ | 489000 M⁻¹ s⁻¹ | 0.014 nM
13 | 6-D8-E7-A11 (human IgG1 chimeric antibody) (antibody, V domains shown, human IgG1 chimeric antibody of the mouse clone) VH: QVHLQQPGAELVKPGASVKLSCKASGYTFTNYWMHWVKRRPGQGLEWIGMIHPNSGTTSFNEKFKSKATLTVDKSSSTAYMQLSSLTSEDSAVYYCAGYYGSSFSWFTYWGQGTLVTVSA VL: QAVVTQESALTTSPGGTVILTCRSSTGAVTTSNFANWVQEKPDHLFTGLIGGTSNRAPGVPVRFSGSLIGDKAALTITGAQTEDDAMYFCALWYSTHYVFGGGTKVTVL | 0.0668 µg/mL | – | 1.57 nM | 92.5% | 0.402 µg/mL | 2830 | 0.749 nM | 0.000348 s⁻¹ | 464000 M⁻¹ s⁻¹ | 0.008 nM
